In patent publication US6551840B2, “Method of screening TGF-β-inhibiting substances” (Chugai Seiyaku Kabushiki Kaisha, priority 1997, dated 2003):

T1: TAK1 (Mus musculus, UniProt Q62073)
T1 construct: A gene encoding a full-length TAK1 was prepared by digesting yeast 2-hybrid expression plasmid pBTMHu11F; expressed in transfected cells; host or cells: Saccharomyces cerevisiae strain L40
T1 sequence (Q62073 1-579): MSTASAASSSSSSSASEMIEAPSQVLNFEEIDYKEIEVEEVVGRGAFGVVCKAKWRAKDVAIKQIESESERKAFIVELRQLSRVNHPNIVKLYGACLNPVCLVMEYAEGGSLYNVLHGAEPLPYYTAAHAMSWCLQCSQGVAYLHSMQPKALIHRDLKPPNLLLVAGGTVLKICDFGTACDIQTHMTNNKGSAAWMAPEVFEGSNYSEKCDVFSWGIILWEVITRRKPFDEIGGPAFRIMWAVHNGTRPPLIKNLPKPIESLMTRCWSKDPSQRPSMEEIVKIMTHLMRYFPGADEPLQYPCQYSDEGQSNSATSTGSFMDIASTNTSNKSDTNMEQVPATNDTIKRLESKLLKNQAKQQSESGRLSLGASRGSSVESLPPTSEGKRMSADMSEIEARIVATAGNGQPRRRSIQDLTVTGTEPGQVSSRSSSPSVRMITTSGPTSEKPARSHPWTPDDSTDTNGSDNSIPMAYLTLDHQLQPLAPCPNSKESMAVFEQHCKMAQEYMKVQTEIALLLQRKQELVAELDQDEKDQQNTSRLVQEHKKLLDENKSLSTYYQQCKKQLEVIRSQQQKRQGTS


Test system: TAK1
Test: Growth of yeast SY1984-P on plate without histidine: ability of TAB1 deletion mutants to activate TAK1
Assay type: cell-based
Conditions: growth of yeast SY1984-P with pNV11-HU11 on SC-His plate, 30° C.
Source text: The region of TAB1 required to induce the kinase activity after binding to TAK1 was identified using TAB1 deletion mutants.
Expression vectors for the 40, 35 and 30 amino acid regions (FIG. 14) in the carboxy terminal of TAB1 were constructed as described below. Thus, genes encoding 40, 35 and 30 amino acid regions respectively in the carboxy terminal of TAB1 were amplified by the PCR method as described above, digested with restriction enzymes XhoI and EcoRI, and inserted to the GAL4 transcription activated domain expression vector pGAD10 to construct pGAD-TAB1C40, pGAD-TAB1C35 and pGAD-TAB1C30, respectively. Furthermore, expression vectors for the TAB1 deletion mutants (FIG. 14) comprising 68, 45 and 25 amino acid regions in the carboxy terminal of TAB1 used were pGAD-TAB1, pGAD-TAB1C45 and pGAD-TAB1C25.
Subsequently, it was investigated whether each TAB1 deletion mutant can induce the kinase activity of TAK1 using the method described in Japanese Unexamined Patent Publication (Kokai) 9(1997)-163990. Thus, the above TAB1 deletion mutant expression vector and TAK1 expression vector pNV11-HU11 (Yamaguchi, K. et al., Science (1995) 270, 2008-2011) were introduced into Saccharomyces cereviceae SY1984-P strain (his3Δ, stellΔ, FUS1p::HIS3, STE7^P368) to obtain deletion mutants. […] These transformants were plated onto a SC-His (glucose 20 g, agar (manufactured by DIFCO) 20 g, Yeast Nitrogen Base w/o amino acids (manufactured by DIFCO) 6.7 g, adenine 100 mg, isoleucine 30 mg, valine 150 mg, arginine 20 mg, lysine 30 mg, methionine 20 mg, phenylalanine 50 mg, threonine 200 mg, tyrosine 30 mg per liter of medium) plate containing no histidine, incubated at 30° C., and the growth of yeast transformed with each expression vector was confirmed in order to evaluate the ability of each TAB1deletion mutant to activate TAK1.

| Molecule | ability to activate TAK1 |
| --- | --- |
| TAB1C40: 40 amino acid region in the carboxy terminal of TAB1 (RPAHSLPPGEDGRVEPYVDFAEFYRLWSVDHGEQSVVTAP; left off: large carriers) | observed |
| TAB1C35: 35 amino acid region in the carboxy terminal of TAB1 (LPPGEDGRVEPYVDFAEFYRLWSVDHGEQSVVTAP; left off: large carriers) | observed |
| TAB1C25: polypeptide comprising 25 amino acids of the carboxy terminal of TAB1 (PYVDFAEFYRLWSVDHGEQSVVTAP; left off: large carriers) | not |
| TAB1C30: 30 amino acid region in the carboxy terminal of TAB1 (DGRVEPYVDFAEFYRLWSVDHGEQSVVTAP; left off: large carriers) | observed |
| TAB1C45: polypeptide comprising 45 amino acids of the carboxy terminal of TAB1 (GLFRSRPAHSLPPGEDGRVEPYVDFAEFYRLWSVDHGEQSVVTAP; left off: large carriers) | observed |
| TAB1C68: 68 amino acid residues of the carboxy terminal of the TAB1 polypeptide (pGAD-TAB1) (protein, GAL4 activation domain fusion) QSPTLTLQSTNTHTQSSSSSSDGGLFRSRPAHSLPPGEDGRVEPYVDFAEFYRLWSVDHGEQSVVTAP | observed |

Target: T1, TAK1
Test: Yeast 2-hybrid method, β-galactosidase activity: binding ability of TAB1 deletion mutants to TAK1
Assay type: cell-based
Conditions: yeast L40 co-transformed with TAK1 2-hybrid expression plasmid; GAL4 activation domain fusion; measured three times
Source text: In order to evaluate each TAB1 deletion mutant constructed in Example 10, a yeast 2-hybrid expression vector of each TAB1 deletion mutant and a yeast 2-hybrid expression vector pBTMHu11F (Shibuya H. et al., Science (1996) 272, 1179-1182) that expresses TAK1 were co-transformed into a yeast strain L40 (Shibuya H. et al., Science (1996) 272, 1179-1182). […] each of a TAB1 deletion mutant expression vector (pGAD-TAB1C45 to pGAD-TAB1C45 in Working Example 10-1 and pGAD-TAB1C45D14 to pGAD-TAB1C45D25 in Working Example 10-2) or pGAD-TAB1 (Shibuya H. et al., Science (1996) 272, 1179-1182) as a control and pBTMHu11F were introduced into the L40 strain according to the instructions (MATCHMAKER™ Two-Hybrid System, manufactured by CLONTECH), and were incubated on a selection agar medium SD-ULW (glucose 20 g, agar (manufactured by DIFCO) 20 g, Yeast Nitrogen Base w/o amino acids (manufactured by DIFCO) 6.7 g, adenine 100 mg, isoleucine 30 mg, valine 150 mg, arginine 20 mg, lysine 30 mg, methionine 20 mg, phenylalanine 50 mg, threonine 200 mg, tyrosine 30 mg, histidine 100 mg-per liter of medium) at 30° C. for 3 days to obtain each transformant.
In order to evaluate the binding ability to TAK1 of each TAB1 deletion mutant constructed in Example 10, activity was determined by the yeast 2-hybrid method. Since a reporter gene lacZ having the LexA binding sequence upstream thereof has been integrated on the chromosome of the yeast strain L40, the binding ability to TAK1 of each TAB1 deletion mutant can be evaluated in relative terms by measuring the activity of β-galactosidase that is a reporter gene product.
(§1) The β-galactosidase activity of each transformant obtained in Example 11 was determined according to the instructions (MATCHMAKER™ Two-Hybrid System, manufactured by CLONTECH), and the activity was calculated using Miller Unit (Miller, J. H. (1972) Experiments in Molecular Genetics, Cold Spring Harbor Laboratory, Cold Spring Harbor, N.Y.).
In FIG. 11, the β-galactosidase activity of each TAB1 deletion mutant and the yeast L40 transformed by the yeast 2-hybrid expression plasmid of TAK1 was expressed in terms of Miller Units. Measurement was carried out three times and the mean+/−SD is shown. The value indicates a ratio based on the β-galactosidase activity of the yeast L40 transformed by TAB1C68 and the yeast 2-hybrid expression plasmid of TAK1.
as §1, with “Units” for “Unit”
In FIG. 12, the β-galactosidase activity of the yeast L40 transformed by each TAB1 deletion mutant and the yeast 2-hybrid expression plasmid of TAK1 was expressed in terms of Miller Units. Measurement was carried out three times and the mean+/−SD is shown. The value indicates a ratio based on the β-galactosidase activity of the yeast L40 transformed by the TAB1C68 and yeast 2-hybrid expression plasmid of TAK1.
First, binding between the 68, 45, 40, 35, 30 and 25 amino acid regions of the carboxy terminal of TAB1 and TAK1 was evaluated by the yeast 2-hybrid method mentioned above.

| Molecule | specific activity: β-galactosidase activity as ratio to TAB1C68 |
| --- | --- |
| TAB1C45 Δ25: lacks 25 amino acids from the carboxy terminal of the 45 amino acid carboxy terminal portion of TAB1 (GLFRSRPAHSLPPGEDGRVE; UniProt Q15750 460-479, looked up, fragment) | 0.01 |
| TAB1C22: polypeptide comprising 22 amino acids of the carboxy terminal of TAB1 (DFAEFYRLWSVDHGEQSVVTAP; left off: large carriers) | 0.03 |
| TAB1C45 Δ21: lacks 21 amino acids from the carboxy terminal of the 45 amino acid carboxy terminal portion of TAB1 (GLFRSRPAHSLPPGEDGRVEPYVD; UniProt Q15750 460-483, looked up, fragment) | 0.01 |
| TAB1C21: polypeptide comprising 21 amino acids of the carboxy terminal of TAB1 (FAEFYRLWSVDHGEQSVVTAP; left off: large carriers) | 0.03 |
| TAB1C45 Δ19: lacks 19 amino acids from the carboxy terminal of the 45 amino acid carboxy terminal portion of TAB1 (GLFRSRPAHSLPPGEDGRVEPYVDFA; UniProt Q15750 460-485, looked up, fragment) | 0.13 |
| TAB1C45 Δ24: lacks 24 amino acids from the carboxy terminal of the 45 amino acid carboxy terminal portion of TAB1 (GLFRSRPAHSLPPGEDGRVEP; UniProt Q15750 460-480, looked up, fragment) | 0.02 |
| TAB1C45 Δ20: lacks 20 amino acids from the carboxy terminal of the 45 amino acid carboxy terminal portion of TAB1 (GLFRSRPAHSLPPGEDGRVEPYVDF; UniProt Q15750 460-484, looked up, fragment) | 0.11 |
| TAB1C20: polypeptide comprising 20 amino acids of the carboxy terminal of TAB1 (AEFYRLWSVDHGEQSVVTAP; left off: large carriers) | 0.03 |
| TAB1C23: polypeptide comprising 23 amino acids of the carboxy terminal of TAB1 (VDFAEFYRLWSVDHGEQSVVTAP; left off: large carriers) | 0.05 |
| TAB1C24: polypeptide comprising 24 amino acids of the carboxy terminal of TAB1 (YVDFAEFYRLWSVDHGEQSVVTAP; left off: large carriers) | 0.35 |
| TAB1C45 Δ23: lacks 23 amino acids from the carboxy terminal of the 45 amino acid carboxy terminal portion of TAB1 (GLFRSRPAHSLPPGEDGRVEPY; UniProt Q15750 460-481, looked up, fragment) | 0.00 |
| TAB1C45 Δ22: lacks 22 amino acids from the carboxy terminal of the 45 amino acid carboxy terminal portion of TAB1 (GLFRSRPAHSLPPGEDGRVEPYV; UniProt Q15750 460-482, looked up, fragment) | 0.02 |
